The values that follow are results of earlier work, collected in paper PMC5855594, “Poly-N-Acetyllactosamine Neo-Glycoproteins as Nanomolar Ligands of Human Galectin-3: Binding Kinetics and Modeling” (International Journal of Molecular Sciences, 2018).

Data set [1] deals with Asialofetuin (Bos taurus) (UniProt P12763). Kind of data set: ITC.
The target in data set [2] is BSA neo-glycoprotein 11 (Bos taurus) (UniProt P02769). Kind of data set: ELISA.
Data set [3] addresses BSA neo-glycoprotein 12 (Bos taurus) (UniProt P02769). Kind of data set: ELISA.
The target in data set [4] is BSA neo-glycoprotein 13 (Bos taurus) (UniProt P02769). Kind of data set: ELISA. A general note: In an ELISA, binding on a coated surface is turned into a signal by an enzyme label.
Data set [5] concerns the target BSA neo-glycoprotein 14 (Bos taurus) (UniProt P02769). Kind of data set: ELISA.
In data set [6] the target is BSA neo-glycoprotein 15 (Bos taurus) (UniProt P02769). Kind of data set: ELISA.
Data set [7] concerns the target BSA neo-glycoprotein 16 (Bos taurus). Kind of data set: ELISA.
For data set [8], the target named is BSA neo-glycoprotein 13 (Bos taurus) (UniProt P02769). Kind of data set: competitive ELISA.
In data set [9] the target is BSA neo-glycoprotein 14 (Bos taurus) (UniProt P02769). Kind of data set: competitive ELISA.
The target in data set [10] is BSA neo-glycoprotein 15 (Bos taurus) (UniProt P02769). Kind of data set: competitive ELISA.
Data set [11] addresses BSA neo-glycoprotein 16 (Bos taurus). Kind of data set: competitive ELISA.

Galectin-3, sequence (P17931 2-250): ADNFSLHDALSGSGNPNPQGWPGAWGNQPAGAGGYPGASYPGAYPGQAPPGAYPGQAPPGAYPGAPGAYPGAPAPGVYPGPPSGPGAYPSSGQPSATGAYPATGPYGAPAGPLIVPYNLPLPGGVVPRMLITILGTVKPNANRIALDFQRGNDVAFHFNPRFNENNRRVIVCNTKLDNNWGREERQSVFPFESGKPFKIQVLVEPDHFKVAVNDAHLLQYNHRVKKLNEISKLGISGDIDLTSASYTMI
BSA neo-glycoprotein 14 (Bos taurus), sequence (P02769 25-607): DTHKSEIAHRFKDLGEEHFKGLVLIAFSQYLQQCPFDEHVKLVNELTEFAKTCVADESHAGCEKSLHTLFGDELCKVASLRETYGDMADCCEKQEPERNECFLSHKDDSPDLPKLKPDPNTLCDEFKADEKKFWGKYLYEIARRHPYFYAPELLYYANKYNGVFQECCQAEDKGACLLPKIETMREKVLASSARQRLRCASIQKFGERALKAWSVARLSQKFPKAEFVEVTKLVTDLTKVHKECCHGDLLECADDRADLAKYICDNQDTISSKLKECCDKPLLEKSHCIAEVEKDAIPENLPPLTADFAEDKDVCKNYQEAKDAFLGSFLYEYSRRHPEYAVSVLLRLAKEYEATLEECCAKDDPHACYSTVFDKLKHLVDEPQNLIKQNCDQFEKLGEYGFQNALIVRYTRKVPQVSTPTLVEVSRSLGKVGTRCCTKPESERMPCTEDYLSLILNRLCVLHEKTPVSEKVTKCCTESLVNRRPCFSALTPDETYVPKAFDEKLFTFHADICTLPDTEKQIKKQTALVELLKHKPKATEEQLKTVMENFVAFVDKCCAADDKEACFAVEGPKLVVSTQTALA
BSA neo-glycoprotein 15 (Bos taurus), sequence (P02769 25-607): as above
BSA neo-glycoprotein 13 (Bos taurus), sequence (P02769 25-607): as above
BSA neo-glycoprotein 16 (Bos taurus), sequence (P02769 25-607): as above
Asialofetuin (Bos taurus), sequence (P12763 19-359): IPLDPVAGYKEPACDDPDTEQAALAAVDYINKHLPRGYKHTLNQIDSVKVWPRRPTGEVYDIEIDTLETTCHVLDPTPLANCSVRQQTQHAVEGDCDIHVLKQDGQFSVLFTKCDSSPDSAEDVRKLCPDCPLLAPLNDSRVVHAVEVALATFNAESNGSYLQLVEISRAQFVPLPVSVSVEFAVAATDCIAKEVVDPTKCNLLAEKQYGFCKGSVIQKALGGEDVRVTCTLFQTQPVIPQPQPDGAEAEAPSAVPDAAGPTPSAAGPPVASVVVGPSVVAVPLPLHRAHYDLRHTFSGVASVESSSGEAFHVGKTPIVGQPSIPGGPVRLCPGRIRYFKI
BSA neo-glycoprotein 11 (Bos taurus), sequence (P02769 25-607): as the sequence (P02769 25-607) above
BSA neo-glycoprotein 12 (Bos taurus), sequence (P02769 25-607): as above

For Galectin-3 (from UniProt P17931), the Kd (in general, the equilibrium constant for the complex coming apart) is 0.00714 µM in data set [1]; 0.03 µM in data set [2]; 0.3 µM in [3]; 0.076 µM in data set [4]; 0.35 µM in [5]; 0.7 µM in [6]. Moreover, in data set [7], the Kd is 0.29 µM. The IC50 (in general, the concentration at which inhibition is half-maximal) in data set [8] is 0.037 µM; in data set [9] it was 0.076 µM; in [10], 0.212 µM; in data set [11] it was 0.065 µM.
